Data from patent publication US20200362047A1 (CRESCENDO BIOLOGICS, published 2020).

Legend:
[1] = target: T1, human PSMA expressed on cells (human, UniProt Q04609 1-750); assay: FMAT, CHO human PSMA cells
T1 construct: One molecule for both cell lines (CHO human PSMA, DU145 PSMA); the cell line stands under assay; also called CHO human PSMA; CHO PSMA
Method: (§1) Binding of His-tagged molecules to CHO human CD137, CHO parent, CHO human PSMA, DU145 PSMA and DU145 parent cells was assessed using Fluorescence Microvolume Assay Technology (FMAT). All reagents were prepared in FMAT assay buffer (pH 7.4) containing PBS, 0.1% Bovine Serum Albumin, 0.05% Sodium Azide. Serially diluted samples were transferred into 384 well black clear-bottomed assay plates (Costar cat. no. 3655) and incubated for a minimum of 2 hours at room temperature with 1.5 nM Anti-His (Millipore cat. no. 05-949), […] Goat Anti-Mouse Alexa Fluor-488 (Jackson ImmunoResearch cat. no. 115-545-071) and 2000 cells/well pre-stained with DRAQ5 (Thermo Scientific cat. no. 62251). Fluorescence emission was then measured on the TTP Mirrorball plate reader in the FL2 (502 nm-537 nm) and FL5 (677-800 nm) channels following excitation at 488 nm and 640 nm. Data was gated on FL5 perimeter and peak intensity and the FL2 median mean fluorescence intensity of the gated data used for determination of VH binding. Monovalent CD137 specific Humabody® VH, bispecific and trispecific molecules with a CD137 binding arm bound to CHO CD137 expressing cells. Monovalent PSMA specific Humabody® VH, bispecific and trispecific molecules with a PSMA binding arm bound to PSMA expressing cells.

[2] = target: T1, human PSMA expressed on cells; assay: FMAT, DU145 PSMA cells
Method: as §1

[3] = target: T2, human CD137 expressed on the surface of CHO cells (human, UniProt Q07011 24-255); assay: FMAT, CHO human CD137 cells
T2 construct: Also used for the Jurkat reporter cells that express human CD137 (functional rows); also called CHO human CD137 cells; CHO huCD137
Method: as §1

[4] = target: T3, CD137 on pre-stimulated human CD8+ T cells (human, UniProt Q07011 24-255); assay: flow cytometry, PMA/ionomycin-stimulated human CD8+ T cells, mean of 2-3 donors
T3 construct: also called pre-stimulated CD8+ cells; primary T cells
Method: Binding to primary T cells was measured using flow cytometry. Peripheral blood mononuclear cells (PBMCs) were isolated from human blood by density gradient centrifugation then CD8+ T cells purified using a negative selection isolation kit according to the manufacturer's protocol (Miltenyi Biotech cat no 130-042-401). T-cells were stimulated PMA/Ionomycin for 48-72 hours in RPMI media supplemented with 10% FBS, 2 mM Glutamine, 1× Pen/Strep. Cells were transferred into 96 well plates, blocked for 10 mins with staining buffer (PBS/1% BSA/0.05% Sodium Azide) then incubated with serially diluted VH in staining buffer (PBS/1% BSA) for 30 mins-1 hour at 4° C. Cells were washed by centrifugation then VH binding detected using Anti His antibody (Millipore 05-949) and Goat Anti Mouse Alexa Fluor-488 (Jackson ImmunoResearch cat no. 115-545-071). A Live Dead near IR stain (Molecular Probes cat no. L10119) was used for discrimination of live cells. After further washing cells were fixed and fluorescence measured by flow cytometry.

[5] = target: T4, human GITR-Fc (R&D Systems cat no. 689-GR) (human, UniProt Q9Y5U5 26-161); assay: ELISA, coated GITR-Fc
T4 construct: Bought protein; also called GITR (Glucocorticoid-induced TNFR-related); not shown: Fc tag
T4 sequence (looked up): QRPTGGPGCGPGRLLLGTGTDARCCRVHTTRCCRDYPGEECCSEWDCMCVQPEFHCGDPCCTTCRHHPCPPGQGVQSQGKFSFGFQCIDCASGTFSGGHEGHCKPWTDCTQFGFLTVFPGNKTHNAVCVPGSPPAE
Method: (§2) Specificity of binding for CD137 over the tumour necrosis factor receptor family members OX40 and GITR (Glucocorticoid-induced TNFR-related) was determined using an ELISA assay. Nunc Maxisorp plates were coated with 1 ug/ml human CD137-Fc recombinant protein (Acro Biosystems 41B-H5258), human GITR-Fc (R&D Systems cat no. 689-GR) human OX40-Fc (R&D Systems cat no. 3388-OX) in sodium carbonate buffer overnight at 4° C. then washed twice with PBS. Non-specific protein interactions were blocked by incubation with 1% (w/v) skimmed milk powder (Marvel®) in PBS/0.1% Tween-20 for 1 hour at room temperature. Plates were washed twice with PBS then VH or antibody control (1 ug/ml) added for 1 hour at room temperature. Following three washes with PBS/0.1% Tween-20 a 1:1000 dilution of anti His-HRP (VH detection) or anti mouse-HRP (positive control mouse monoclonal antibody detection) was added in 1% Marvel/PBS/0.1% Tween-20. The detection antibodies were allowed to bind for 1 hour at room temperature then the plates were washed twice in PBS/0.1% Tween-20 and once in PBS. The ELISA was developed using TMB substrate and the reaction was stopped by the addition of 50 ul 0.5M H₂SO₄ solution. The absorbance at 450 nm was measured using the BMG Pherastar.

[6] = target: T5, human OX40-Fc (R&D Systems cat no. 3388-OX) (human, UniProt P43489 29-216); assay: ELISA, coated OX40-Fc
T5 construct: Bought protein; not shown: Fc tag
T5 sequence (looked up): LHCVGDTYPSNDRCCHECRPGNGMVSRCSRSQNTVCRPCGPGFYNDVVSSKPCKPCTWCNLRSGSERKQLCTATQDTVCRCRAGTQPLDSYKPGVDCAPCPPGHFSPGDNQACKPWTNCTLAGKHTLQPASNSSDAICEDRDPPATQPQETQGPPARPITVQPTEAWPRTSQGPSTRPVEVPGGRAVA
Method: as §2

[7] = target: T6, human CD137-human Fc chimeric protein (Acro Biosystems cat no. 41B-H5258) (human, UniProt Q07011 24-186); assay: HTRF binding assay
T6 construct: Bought protein; The Octet Protein G and Biacore experiments name no catalogue number; also called human CD137Fc recombinant protein; human CD137-Fc recombinant protein; not shown: human IgG1 Fc tag
Method: (§3) Binding to human CD137Fc recombinant protein (Acro Biosystems 41B-H5258), rhesus CD137Fc recombinant protein (Sino Biologicals cat no. 90847-K02H) and mouse CD137Fc protein (Acro Biosystems 41B-M5258) was measured using an HTRF Binding assay format. All reagents and serially diluted VH were prepared in assay buffer containing PBS, 0.1% BSA and 0.4M Potassium Fluoride. Samples or assay buffer (non-specific binding) were incubated with 0.5 nM human, rhesus or mouse CD137, 1 nM Anti human-Fc Cryptate PAb (Cisbio cat. no. 61HFCKLB) and 20 nM anti His-D2 (CisBio cat no 61HISDLA) in black 384-shallow well assay plates for a minimum of 3 hours at room temperature. Time-resolved fluorescent emission at 620 nm and 665 nm was measured following excitation at 337 nm on the BMG PHERAstar plate reader. The HTRF ratio were calculated ((665 nm emission/620 nm emission)*10000) and the data corrected for (non-specific binding) to give the specific binding signal. VH bound to human and rhesus CD137 but not to mouse CD137 protein.

[8] = target: T7, mouse CD137Fc protein (Acro Biosystems 41B-M5258) (mouse, UniProt P20334 24-187); assay: HTRF binding assay
T7 construct: Bought protein; also called mouse CD137 protein; not shown: Fc tag, detected with anti human-Fc
T7 sequence (looked up): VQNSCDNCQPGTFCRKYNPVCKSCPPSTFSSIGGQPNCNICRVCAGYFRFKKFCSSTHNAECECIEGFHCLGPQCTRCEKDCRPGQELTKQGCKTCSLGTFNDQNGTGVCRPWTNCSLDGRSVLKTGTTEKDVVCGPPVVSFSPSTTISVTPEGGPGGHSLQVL
Method: as §3

[9] = target: T8, rhesus CD137Fc recombinant protein (Sino Biologicals cat no. 90847-K02H) (rhesus; human, UniProt H9Z8K9 24-186); assay: HTRF binding assay
T8 construct: Bought protein; also called rhesus CD137-human IgG1 Fc tagged protein; not shown: human IgG1 Fc tag
T8 sequence: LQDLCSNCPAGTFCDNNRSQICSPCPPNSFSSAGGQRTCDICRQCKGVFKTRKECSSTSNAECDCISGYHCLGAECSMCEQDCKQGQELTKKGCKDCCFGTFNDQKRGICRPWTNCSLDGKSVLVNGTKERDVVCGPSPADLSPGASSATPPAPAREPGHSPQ
Method: as §3

[10] = target: T9, PSMA-his (R&D Systems cat no. 4234-ZN) (human, UniProt Q04609 44-750); assay: BLI (Octet RED384), PSMA-his amine-coupled to AR2G sensors, 1:1 model
T9 construct: Bought protein; also called Human PSMA; not shown: His tag
Method: The kinetics of monovalent and bispecific Humabody VH were determined on a ForteBio Octet RED 384 instrument. To study the interaction with the antigens, CD137-Fc tag protein (Acro Biosystems cat no. 41B-H5258) or PSMA-his (R&D Systems cat no. 4234-ZN) was immobilised onto AR2G biosensors (ForteBio cat no. 18-5082) by amine coupling. Monovalent VH and bispecific molecules were serially diluted (typically 1:2 dilution series starting between 12-25 nM, at the highest concentration) in kinetics buffer (0.1% BSA, 0.02% Tween, 1×PBS) and binding to the immobilised proteins was studied during the association and dissociation phases. PSMA binding was measured using 180 seconds association and 600 seconds dissociation phases. CD137 binding was measured 180 seconds association and 600 seconds dissociation phases. Reference subtracted data were fitted to a 1:1 binding model using the ForteBio Octet Data Analysis software.

T1 sequence (Q04609 whole entry): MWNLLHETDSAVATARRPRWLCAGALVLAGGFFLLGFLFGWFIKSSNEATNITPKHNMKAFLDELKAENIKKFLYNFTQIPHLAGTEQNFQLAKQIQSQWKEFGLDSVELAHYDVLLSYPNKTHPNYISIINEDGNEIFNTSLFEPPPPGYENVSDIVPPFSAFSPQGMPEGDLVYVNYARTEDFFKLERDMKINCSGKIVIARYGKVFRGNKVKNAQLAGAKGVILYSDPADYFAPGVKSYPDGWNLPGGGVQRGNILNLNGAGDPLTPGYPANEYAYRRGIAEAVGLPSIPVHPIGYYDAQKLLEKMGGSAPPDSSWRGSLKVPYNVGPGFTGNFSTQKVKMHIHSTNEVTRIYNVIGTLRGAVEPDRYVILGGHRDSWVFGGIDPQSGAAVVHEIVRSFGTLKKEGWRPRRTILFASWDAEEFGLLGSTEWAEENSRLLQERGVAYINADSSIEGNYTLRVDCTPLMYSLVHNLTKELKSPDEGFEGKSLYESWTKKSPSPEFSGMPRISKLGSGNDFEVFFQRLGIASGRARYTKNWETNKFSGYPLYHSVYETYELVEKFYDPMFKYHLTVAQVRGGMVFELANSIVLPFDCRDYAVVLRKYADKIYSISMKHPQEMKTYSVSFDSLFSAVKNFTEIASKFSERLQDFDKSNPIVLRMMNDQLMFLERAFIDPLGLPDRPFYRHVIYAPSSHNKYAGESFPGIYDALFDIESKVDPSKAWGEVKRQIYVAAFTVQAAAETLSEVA
T9 sequence (Q04609 44-750 limits assumed): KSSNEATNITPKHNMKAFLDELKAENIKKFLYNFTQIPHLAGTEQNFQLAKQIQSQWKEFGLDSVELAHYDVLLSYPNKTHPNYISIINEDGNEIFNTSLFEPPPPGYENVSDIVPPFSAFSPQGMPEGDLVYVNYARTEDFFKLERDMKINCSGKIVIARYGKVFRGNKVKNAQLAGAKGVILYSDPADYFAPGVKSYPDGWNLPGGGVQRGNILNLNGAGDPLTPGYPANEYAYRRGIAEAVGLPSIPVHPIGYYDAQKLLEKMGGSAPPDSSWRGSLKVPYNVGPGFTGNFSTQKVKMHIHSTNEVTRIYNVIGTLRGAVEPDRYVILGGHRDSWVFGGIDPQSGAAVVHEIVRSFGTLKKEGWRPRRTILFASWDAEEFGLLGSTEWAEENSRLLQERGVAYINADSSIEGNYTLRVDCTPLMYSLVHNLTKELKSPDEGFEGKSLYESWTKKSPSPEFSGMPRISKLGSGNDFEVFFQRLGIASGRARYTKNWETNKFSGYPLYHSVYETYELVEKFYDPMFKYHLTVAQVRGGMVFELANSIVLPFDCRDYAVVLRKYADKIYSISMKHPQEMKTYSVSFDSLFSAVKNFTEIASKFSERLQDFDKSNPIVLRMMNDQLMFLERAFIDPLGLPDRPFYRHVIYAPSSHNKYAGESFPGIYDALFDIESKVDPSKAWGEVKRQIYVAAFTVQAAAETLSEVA
T2 sequence (Q07011 24-255 limits assumed): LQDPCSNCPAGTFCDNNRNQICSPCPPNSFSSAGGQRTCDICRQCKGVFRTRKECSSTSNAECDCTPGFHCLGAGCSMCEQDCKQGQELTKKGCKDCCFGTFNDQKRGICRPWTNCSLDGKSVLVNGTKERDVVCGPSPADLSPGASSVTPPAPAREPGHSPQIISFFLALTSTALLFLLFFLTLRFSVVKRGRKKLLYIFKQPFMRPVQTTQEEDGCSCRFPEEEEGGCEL
T3 sequence (Q07011 24-255 limits assumed): as above

| Binder | EC50 [1] | EC50 [2] | EC50 [3] | EC50 [4] | binding result [5] | binding result [6] | EC50 [7] | binding result [8] | EC50 [9] | Kd [10] | koff [10] | kon [10] |
| --- | --- | --- | --- | --- | --- | --- | --- | --- | --- | --- | --- | --- |
| 4.1-6GS-1.1-6GS-VH (MSA) (bispecific antibody, trispecific tandem VH (PSMA, CD137, mouse serum albumin); also called 4.1-6GS-1.1-VH (MSA); 4.1-6GS-1.1-6GS-MSA; not shown: His tag) EVQLVESGGGVVQPGRSLRLSCAASGFSFSGYGMHWVRQAPGKGLEWVAYISYDGSNKYYADSVKGRFTISRDNSKNTLYLQMNSLRAEDTAVYYCAKDPAWGLRLGESSSYDFDIWGQGTMVTVSSGGGGSGGGGSGGGGSGGGGSGGGGSGGGGSEVQLVESGGGLVQPGGSLRLSCAASGFTFSSHWMTWFRQAPGKGLEWVAHIKEDGSEKYYEDSVEGRFTVSRDNAKNSVYLQMNSLRAEDTAVYYCARGGDGYSDSHFGVDVWGQGTTVTVSSGGGGSGGGGSGGGGSGGGGSGGGGSGGGGSQVQLVESGGGLVQPGGSLRLSCAASGFTFSSYAMSWVRQAPGKGLEWVATISDSGSSADYADSVKGRFTISRDNSKNTLYLQMNSLRAEDTAVYYCARGRYNWNPRALGIWGQGTMVTVSS | 0.32 nM | 0.36 nM | 0.58 nM | – | – | – | – | – | – | – | – | – |
| Humabody VH 2.2 (VHH, human single VH domain) VH: EVQLVESGGGLVKPGGSLRVSCAASGFTFSDYYMSWFRQAPGKGLEWVSYISGSGDIIDYADSVKGRFTISRDNAKNSLYLQMNSLRAEDTAVYHCAKEDSRIPGTTDFDNWGQGTLVTVSSHHHHHH | – | – | 0.18 nM | 0.74 nM | no binding (tested: 1 ug/ml) | no binding (tested: 1 ug/ml) | 0.91 nM | no binding | 0.56 nM | – | – | – |
| PSMA binding single VH domain antibody 4.1 (VHH, human single VH domain, PSMA specific) VHH: EVQLVESGGGVVQPGRSLRLSCAASGFSFSGYGMHWVRQAPGKGLEWVAYISYDGSNKYYADSVKGRFTISRDNSKNTLYLQMNSLRAEDTAVYYCAKDPAWGLRLGESSSYDFDIWGQGTMVTVSS | 0.17 nM | 0.19 nM | – | – | – | – | – | – | – | 0.53 nM | 0.00016 s⁻¹ | 310000 M⁻¹ s⁻¹ |
